# Data taken from PMC12377726 (Proceedings of the National Academy of Sciences of the …, 2025).
# Molecular target: eOD-GT8 (engineered outer domain germline-targeting version 8), monomer (HIV-1 gp120 engineered outer domain, …)
row,Binder,binding result
1,"G001_gp1_V06_VRC01c_2021-0023 (antibody, V domains shown) VH: QVQLVQSGAEVKKPGASVKVSCKASGYTFTDYYIHWVRQAPGQGLEWMGWINPNSGGTNYAQKFQDWVTMTRDTSITTAYMELSRLRSDDTAVYYCARGVRYSSSWYFGYWGQGTLVTVSS VL: QSALTQPASVSGSPGQSITISCTGTSSDVGGYNYVSWYQQHPGKAPKLMIYDVSNRPSGVSNRFSGSKSGNTASLTISGLQTEDEADYYCSSYEVFGTGTKVTVL",binds
2,"G001_gp1_V06_VRC01c_86 (antibody, V domains shown) VH: not shown VL: QSALTQPPSASGSPGQSVTISCTGTSSDVGGYNYVSWYQQHPGKAPKLMIYEVSKRPSGVPDRFSGSKSGNTASLTVSGLQPEDEADYYCSSYEVFGTGTRVTVL",binds
3,"G001_gp1_V06_VRC01c_2021-0026 (antibody, V domains shown) VH: not shown VL: EIVLTQSPGTLSLSPGERATLSCRACQSVSSSYLAWYQQKPGQAPRLLIYGASSRATGIPDRFSGSGSGTDFTLTISRLEPEDFAVYYCQQYETFGQGTKLEIK",binds
4,"G001_gp1_V07_VRC01c_109 (antibody, V domains shown) VH: QVQLVQSGAEVKKPGASVKVSCKTSGYTFTDYYIHWVRQAPGQGLEWMGWINPNSGGTNYAQKFQGGVTMTRDTSISTAYMDLNRLTSDDTAVYYCTRLPPNRAAPGWWFDPWGQGTLVTVSS VL: EIVLTQSPGTLSLSPGERATLSCRASQSVSSSYLAWYQQKPGQAPRLLIYGASNRATGIPDRFSGSGSGTDFTLTISRLEPEDFAVYYCQQYGAFGQGTKVEIK",binds
5,"G001_gp1_V07_VRC01c_110 (antibody, V domains shown) VH: QVQLVQSGAEVKKPGASVRVSCKASGYTFTDYYMHWVRQAPGQGLEWMGWINPNSGGTNYAQKFQGRVTMTRDTSISTAYMELSGLRSDDTAVYYCARITGYYDSSGYYCLDHWGQGTLVTVAS VL: EIVLTQSPGTLSLSPGERATLSCRASQSGRSSYLAWYQQKPGQAPRLLIYGASSRATGIPDRFSGSGSGTDFTLTISRLEPEDFAVYYCHQYAAFGQGTKVEIK",binds
6,"G001_gp1_V06_VRC01c_88 (antibody, V domains shown) VH: QVQLVQSGAEVKKPGASVKVSCKASGYTFTGYYMHWVRQAPGQGLEWMGWINPNSGGTNYAQKFQGRVTMTRDTSISTAYMELRGLRSDDTAVYYCASLYYYVPGGWGQGTLVTVSS VL: EIVLTQSPGTLSLSPGERATLSCRASQSVSNSYLAWYQQKPGQAPRLLIYGASSRATGIPDRFSGSGSGTDFTLTISRLEPEDFAVYYCQQYVTFGPGTKVDIK",binds
7,"G001_gp1_V06_VRC01c_2021-0028 (antibody, V domains shown) VH: not shown VL: EIVLTQSPGTLSLSPGERATLSCRASQSVSGSYLAWYQQKPGQAPRLLIYGSSSRATGIPDRFSGSGSGTDFTLTISRLEPEDFAVYYCQQYETFGQGTKVEIK",binds
8,"G001_gp1_V07_VRC01c_2021-0035 (antibody, V domains shown) VH: QVQLVQSGAEVKKPGASVKVSCKASGYTFTDYYLHWVRQAPGQGLEWMGWINPNSGGTNYAQKFQDWVTMTRDTSISTAYMELSRLRSDDTAVYYCARDGLAARWDFDSWGQGTLVTVSS VL: SYELTQPPSVSVAPGQTARITCGGNNIGSKSVHWYQQKPVQAPVLVVYDDGDRPSGIPERFSGSNSGNTATLTISRVEAGDEADYYCQVLEVFGTGTKVTVL",binds
9,"G001_gp1_V06_VRC01c_2021-0022 (antibody, V domains shown) VH: not shown VL: EIVMTQSPATLSVSPGERATLSCRASQSVSSNLAWYQQKPGQAPRLLIYGASTRATGIPARFSGSGSGTEFTLTISSLQSEDFAVYYCQQYNNFGQGTRLEIK",binds
10,"G001_gp1_V06_VRC01c_81 (antibody, V domains shown) VH: not shown VL: EIVMTQSPATLCVSPGERATLSCRASQSVSSNLAWYQQKPGQAPRLLIYGASTRATGIPARFSGSGSGTEFTLTISSLQSEDFAVYYCQQYNNFGQGTKVEIK",binds
11,"G001_gp1_V06_VRC01c_87 (antibody, V domains shown) VH: not shown VL: EIVMTQSPATLSVSPGERATLSCRASQSVSSNLAWYQQKPGQAPRLLIYGASTRATGIPARFSGSGSGTEFTLTISSLQSEDFAVYYCQQYETFGQGTKVEIK",binds
12,"G001_gp1_V07_VRC01c_105 (antibody, V domains shown) VH: not shown VL: EIVMTQSPATLSVSPGERATLSCRASQSVSSNLAWYQQKPGQAPRLLIYGASTRATGIPARFSGSGSGTEFTLTISSLQSEDFAVYYCQQYNIFGQGTKLEIK",binds
13,"G001_gp1_V07_VRC01c_2021-0032 (antibody, V domains shown) VH: not shown VL: EIVMTQSPATLSVSPGERATLSCRASQSVSSNLAWYQQKPGQAPRLLIYGASTRATGIPARFSGSGSGTEFTLTISSLQSEDFAVYYCQQYEFFGPGTKVDIK",binds
14,"G001_gp1_V06_VRC01c_82 (antibody, V domains shown) VH: not shown VL: EIVMTQSPATLSVSPGERATLSCRASQSVSSNLAWYQQKPGQAPRLLIYGASTRATGIPARFSGSGSGTEFTLTISSLQSEDFAVYYCQQYETFGGGTKVEIK",binds
15,"G001_gp1_V06_VRC01c_2021-0027 (antibody, V domains shown) VH: not shown VL: QSVLTQPPSVSGAPGQRVTISCTGSSSNIGAGYDVHWYQQLPGTAPKLLIYGNSNRPSGVPDRFSGSKSGTSASLAITGLQAEDEADYYCQSYEVFGGGTKLTVL",binds
16,"G001_gp1_V06_VRC01c_79 (antibody, V domains shown) VH: not shown VL: EIVLTQSPGTLSLSPGERATLSCRASQSSSHLAWYQQKHGQAPRLLIYGASSRATGIPDRFSGSGSGTDFTLTISRLEPEDFAVYHCQQYETFGQGTKVEIK",binds
17,"G001_gp1_V06_VRC01c_83 (antibody, V domains shown) VH: not shown VL: DIQMTQSPSSLSASVGDRVTITCQASQDINNYLNWYQQKPGKAPKLLIYDASNLETGVPSRFSGSGSGTDFTFTISSLQPEDIATYYCQQYEAFGQGTKVEIK",binds
18,"G001_gp1_V07_VRC01c_101 (antibody, V domains shown) VH: QVQLVQSGAEVKKPGASVKVSCKASRDTFTGYYMHWVRQAPGQGLEWMGWINPNSGGTNYAQKFQDGVTLTRDTSISTAYMELSRLRSDDTAVYYCARTEYYSQRGWAFDIWGQGTMVTVSS VL: DIQMTQSPSSLSASVGDRVTITCQASQDISNHLNWYQQKPGKAPKLLIYDASNLETGVPLRFSGSGSGTDFTFTISSLQPEDIATYYCQQYDNFGPGTKVDIK",binds
19,"G001_gp1_V07_VRC01c_2021-0036 (antibody, V domains shown) VH: QVQLVQSGAEVKKPGASVKVSCKASGYTFTGYYMHWVRQAPGQGLEWMGWINPNSGGTNYAQKFQDWVTMTRDTSISTAYMEVSRLKSDDTAVYYCARGRAGTTAWWYFDLWGRGALVTVSS VL: DIQMTQSPSSLSASVGDRVTITCQASQDISNYLNWYQQKPGKAPKLLIYDASNLETGVPSRFSGSGSGTDFTFTISSLQPEDVATYYCQQYDSFGPGTKVDIK",binds
20,"G001_gp1_V07_VRC01c_2021-0031 (antibody, V domains shown) VH: not shown VL: DIQMTQSPSSLSASVGDRVTITCQASQDISEYLNWYQQKPGKAPKLLIYDASNLETGVPSRFSGSGSGTDFTFTISSLQPEDVATYYCQQYEFFGGGTKVEIK",binds
21,"G001_gp1_V07_VRC01c_107 (antibody, V domains shown) VH: QVQLVQSGAEVKKPGASVKVSCKASGYTFTGYYMHWVRQAPGQGLEWMGWINPSSGGTNYAQKFQGRVTMTRDTSISTAYMELDWLRSDDTAVYYCARVRGATTFDYWGQGTLVTVSS VL: DIQMTQSPSSLSASVGDRVTITCQASQDISNYLHWYQQKPGKAPKLLIYDASKLETGVPSRFSGSGSGTDFTFTISSLQPEDIATYYCQQYNTFGQGTKLQIK",binds
22,"G001_gp1_V07_VRC01c_2021-0037 (antibody, V domains shown) VH: not shown VL: DIQMTQSPSSLSASVGDRVTITCQASQDISNYLNWYQQKPGKAPKLLIYDASNLETGVPSRFSGSGSGTDFTFTISSLQPEDIATYYCQEYDTFGGGTKVEIK",binds
23,"G001_gp1_V07_VRC01c_2021-0038 (antibody, V domains shown) VH: not shown VL: DIQMTQSPSSLSASVGDRVTITCQASQGISNYLNWYQLKPGKAPKLLISDASNLETGVPSRFSGSGSGTDFTFTISSLQPEDIATYYCQQYDYFGPGTTVDIK",binds
24,"G001_gp1_V06_VRC01c_2021-0030 (antibody, V domains shown) VH: not shown VL: DIQMTQSPSTLSASVGDRVTITCRASQSISSWLAWYQQKPGKAPKLLIYKASSLESGVPSRFSGSGSGTEFTLTISSLQPDDFATYYCQQYATFGQGTKVEIK",binds
25,"G001_gp1_V07_VRC01c_2021-0033 (antibody, V domains shown) VH: not shown VL: DIQMTQSPSTLSASVGDRVTITCRASQSISSWLAWYQQKPGKAPKLLIYKASSLESGVPSRFSGSGSGTEFTLTISSLQPDDFATYYCQQYETFGQGTKVEIK",binds
26,"G001_gp1_V07_VRC01c_102 (antibody, V domains shown) VH: QVQLVQSGAEVKKPGASVKVSCKASGYTFTGYYMHWVRQAPGQGLEWMGWINPISGGTNYAQEFQDWVTMTRDTSISTAYMELSRLRSDDTAVYYCARHDSSENAFDIWGQGTMVTVSS VL: DIQMTQSPSTLSASVGDRVTITCRASQSTSRWLAWYQQKPGKAPKLLIYKASSLESGVPSRFSGSGSGTEFTLTISSLQPDDFATYYCQQYTSFGQGTKLEIK",binds
27,"G001_gp1_V07_VRC01c_2021-0034 (antibody, V domains shown) VH: QVQLVQSGAEVKKPGASVKVSCKASGYTFSGYYMHWVRQAPGQGLEWMGWINPNSGGTNYAQKFQGGVTMTRDTSISTAYMELSSLRSDDTAVYYCAREGGLGATAFDYWGQGTLVSVSS VL: DIQMTQSPSTLSASVGDRVTITCRASQSISSWLAWYQQKPGKAPKLLIYKASSLESGVPSRFSGSGSGTEFTLTISSLQPDDFATYYCQQYETFGQGTKLEIK",binds
28,"G001_gp1_V07_VRC01c_111 (antibody, V domains shown) VH: QVQLVQSGAEVKKPGASVKVSCKASGYTFTGYYMHWVRQAPGQGLEWMGWIYPNSGGTNYVQEFQGRVTMTRDTSISTAYMELSRLRSDDTAVYYCATDNYTTSSMLLRTWGQGTLVTVSS VL: DIQMTQSPSTLSASVGDRVTITCRASQSISSWLAWYQQKPGKAPKLLIYKASSLESGVPSRFSGSGSGTEFTLTISSLQPDDFATYYCQQYETFGQGTKVEIK",binds
29,"G001_gp1_V06_VRC01c_76 (antibody, V domains shown) VH: QVHLVQSGAEVKKPGASVKVSCKASEYTFSDYYMHWVRQAPGQGLEWMGWINPNSGGTNYAQKFQGRVTMTRDTSISTAYMELSRLRSDDTAVYYCATRGTGRYSYGSGTFYDYWGQGTLVTVSS VL: not shown",binds
